Assay [1] has as its target T1, human FcγRIIIa-158F (human, UniProt P08637 17-208, limits assumed).
T1 construct: also called FcγRIIIa aa158F allele
The assay is described as follows: Biacore (SPR); ratio of KD against rituximab. Background: Surface plasmon resonance follows binding to a sensor surface in real time, without labels.

In assay [2] the target is T2, human FcγRIIIa-158V (human, UniProt P08637 17-208).
T2 construct: also called FcγRIIIa aa158V allele
The assay is described as follows: Biacore (SPR).

Assay [3] deals with T1, human FcγRIIIa-158F. The assay is described as follows: Biacore (SPR).

A word on the Kd: it is a measure of binding affinity in units of concentration. Read a high Kd as lower affinity.

T1 sequence (P08637 17-208 limits assumed): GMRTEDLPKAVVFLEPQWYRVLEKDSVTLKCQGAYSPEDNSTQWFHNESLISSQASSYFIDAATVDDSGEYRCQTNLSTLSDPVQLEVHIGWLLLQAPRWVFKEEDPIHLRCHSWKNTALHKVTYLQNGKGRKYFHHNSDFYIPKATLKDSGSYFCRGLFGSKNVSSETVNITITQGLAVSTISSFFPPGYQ
T2 sequence (P08637 17-208 F176V): as the sequence (P08637 17-208 limits assumed) above, with F160V counted along it

B1: monoclonal antibody CHIR-12.12 (antibody, human IgG1, kappa)
heavy: not shown
light: DIVMTQSPLSLTVTPGEPASISCRSSQSLLYSNGYNYLDWYLQKPGQSPQVLISLGSNRASGVPDRFSGSGSGTDFTLKISRVEAEDVGVYYCMQARQTPFTFGPGTKVDIRRTVAAPSVFIFPPSDEQLKSGTASVVCLLNNFYPREAKVQWKVDNALQSGNSQESVTEQDSKDSTYSLSSTLTLSKADYEKHKVYACEVTHQGLSSPVTKSFNRGEC
notes: Fully human IgG1 kappa anti-CD40 antibody; also called CH12.12
On to B1, for which the “fold higher affinity compared with rituximab” value in assay [1] amounted to 4.6 fold. The Kd was 492 nM in assay [2] and 2800 nM in assay [3].
